# In paper PMC4609182 (The EMBO Journal, 2015):
# Where a chain is given by its changes, count along the chain named. Names may count otherwise.
# B1: Parkin R0RBR module (RING0, RING1, IBR, RING2), wild type (domain or fragment, rat)
# chain: PTYHSFFVYCKGPCHKVQPGKLRVQCGTCRQATLTLAQGPSCWDDVLIPNRMSGECQSPDCPGTRAEFFFKCGAHPTSDKDTSVALNLITNNSRSIPCIACTDVRNPVLVFQCNHRHVICLDCFHLYCVTRLNDRQFVHDAQLGYSLPCVAGCPNSLIKELHHFRILGEEQYNRYQQYGAEECVLQMGGVLCPRPGCGAGLLPEQGQKKVTCEGGNGLGCGFVFCRDCKEAYHEGECDSMFEASGATSQAYRVDQRAAEQARWEEASKETIKKTTKPCPRCNVPIEKNGGCMHMKCPQPQCKLEWCWNCGCEWNRACMGDHWFDV
# B2: W403A Parkin R0RBR (domain or fragment, rat)
# chain: B1 chain with W263A
# B3: H302A Parkin R0RBR (domain or fragment, rat)
# chain: B1 chain with H162A
# B4: Phosphorylated Parkin (phospho-Ser65 in the Ubl domain) (enzyme, rat, UniProt Q9JK66 1-465, looked up)
# chain: MIVFVRFNSSYGFPVEVDSDTSIFQLKEVVAKRQGVPADQLRVIFAGKELQNHLTVQNCDLEQQSIVHIVQRPQRKSHETNASGGDKPQSTPEGSIWEPRSLTRVDLSSHILPADSVGLAVILDTDSKSDSEAARGPEAKPTYHSFFVYCKGPCHKVQPGKLRVQCGTCRQATLTLAQGPSCWDDVLIPNRMSGECQSPDCPGTRAEFFFKCGAHPTSDKDTSVALNLITNNSRSIPCIACTDVRNPVLVFQCNHRHVICLDCFHLYCVTRLNDRQFVHDAQLGYSLPCVAGCPNSLIKELHHFRILGEEQYNRYQQYGAEECVLQMGGVLCPRPGCGAGLLPEQGQKKVTCEGGNGLGCGFVFCRDCKEAYHEGECDSMFEASGATSQAYRVDQRAAEQARWEEASKETIKKTTKPCPRCNVPIEKNGGCMHMKCPQPQCKLEWCWNCGCEWNRACMGDHWFDV
# modifications: phosphoserine at 65
# B5: Full-length Parkin, unmodified (enzyme, rat, UniProt Q9JK66 1-465, looked up)
# chain: B4 chain
# B6: Full-length L266K Parkin (enzyme, rat, UniProt Q9JK66 1-465, looked up)
# chain: B4 chain with L266K
# B7: R314A Parkin R0RBR (domain or fragment, rat)
# chain: B1 chain with R174A
# B8: K161N Parkin R0RBR (domain or fragment, rat)
# chain: B1 chain with K21N
# B9: R275A Parkin R0RBR (domain or fragment, rat)
# chain: B1 chain with R135A
# B10: R271A Parkin R0RBR (domain or fragment, rat)
# chain: B1 chain with R131A
# B11: R334A Parkin R0RBR (domain or fragment, rat)
# chain: B1 chain with R194A
# B12: K369A Parkin R0RBR (domain or fragment, rat)
# chain: B1 chain with K229A
# B13: W403A Parkin (enzyme, rat, UniProt Q9JK66 1-465, looked up)
# chain: B4 chain with W403A
# Biological target: T1, UbcH7 (E2 ubiquitin-conjugating enzyme) (UniProt P68036 1-154)
# Experiment: ITC; Parkin constructs titrated with UbcH7; 20°C; 50 mM Tris–HCl pH 7.4, 150 mM NaCl, 1 mM TCEP; stoichiometry fixed to 1:1
# Settings: both partners purified
# T1 sequence (P68036 whole entry): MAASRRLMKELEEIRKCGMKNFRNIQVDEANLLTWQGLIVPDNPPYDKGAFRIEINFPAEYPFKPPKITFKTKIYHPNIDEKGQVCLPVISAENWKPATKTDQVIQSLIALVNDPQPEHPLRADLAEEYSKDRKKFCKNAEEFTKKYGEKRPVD
row,Binder,Kd [nM]
1,B1,> 700000
2,B2,119000

# Biological target: Phosphorylated ubiquitin (phospho-Ser65 ubiquitin) (UniProt P0CG48 1-76, phosphoserine at 65)
# Experiment: ITC; Parkin constructs titrated with pUb; 20°C; 50 mM Tris–HCl pH 7.4, 150 mM NaCl, 1 mM TCEP; stoichiometry determined experimentally
# Settings: both partners purified
row,Binder,Kd [nM]
1,B3,1330
2,B1,22
3,B4,17
4,B5,431
5,B6,37

# Biological target: His-tagged phosphorylated ubiquitin (UniProt P0CG48 1-76, phosphoserine at 65)
# Experiment: pull-down; 1 nmol His-tagged pUb on Ni-NTA resin, 15 min with 1 nmol R0RBR variant; TBS, 2 mM BME, 0.02% Igepal 630; SDS–PAGE, Coomassie
# Settings: both partners purified
row,Binder,binding result
1,B7,binds
2,B8,binds
3,B9,binds
4,B10,binds
5,B11,binds
6,B12,binds

# Biological target: T1, UbcH7 (E2 ubiquitin-conjugating enzyme)
# Experiment: NMR titration; 15N-UbcH7 with unlabeled Parkin constructs with or without pUb; 1H-15N correlation spectra, 293 K; 20 mM Tris–HCl, 120 mM NaCl, 2 mM DTT, pH 7.4; binding read as loss of signals
# Settings: both partners purified
row,Binder,binding result
1,B13,binds
